Patent US20150064747A1

Target: EBV DNA polymerase BALF5 catalytic subunit, full-length (Epstein-Barr Virus) (UniProt P03198)
Test: cell-based or functional assay

EBV DNA polymerase BALF5 catalytic subunit, full-length (Epstein-Barr Virus), sequence (P03198 1-1015, tags or fused parts left off): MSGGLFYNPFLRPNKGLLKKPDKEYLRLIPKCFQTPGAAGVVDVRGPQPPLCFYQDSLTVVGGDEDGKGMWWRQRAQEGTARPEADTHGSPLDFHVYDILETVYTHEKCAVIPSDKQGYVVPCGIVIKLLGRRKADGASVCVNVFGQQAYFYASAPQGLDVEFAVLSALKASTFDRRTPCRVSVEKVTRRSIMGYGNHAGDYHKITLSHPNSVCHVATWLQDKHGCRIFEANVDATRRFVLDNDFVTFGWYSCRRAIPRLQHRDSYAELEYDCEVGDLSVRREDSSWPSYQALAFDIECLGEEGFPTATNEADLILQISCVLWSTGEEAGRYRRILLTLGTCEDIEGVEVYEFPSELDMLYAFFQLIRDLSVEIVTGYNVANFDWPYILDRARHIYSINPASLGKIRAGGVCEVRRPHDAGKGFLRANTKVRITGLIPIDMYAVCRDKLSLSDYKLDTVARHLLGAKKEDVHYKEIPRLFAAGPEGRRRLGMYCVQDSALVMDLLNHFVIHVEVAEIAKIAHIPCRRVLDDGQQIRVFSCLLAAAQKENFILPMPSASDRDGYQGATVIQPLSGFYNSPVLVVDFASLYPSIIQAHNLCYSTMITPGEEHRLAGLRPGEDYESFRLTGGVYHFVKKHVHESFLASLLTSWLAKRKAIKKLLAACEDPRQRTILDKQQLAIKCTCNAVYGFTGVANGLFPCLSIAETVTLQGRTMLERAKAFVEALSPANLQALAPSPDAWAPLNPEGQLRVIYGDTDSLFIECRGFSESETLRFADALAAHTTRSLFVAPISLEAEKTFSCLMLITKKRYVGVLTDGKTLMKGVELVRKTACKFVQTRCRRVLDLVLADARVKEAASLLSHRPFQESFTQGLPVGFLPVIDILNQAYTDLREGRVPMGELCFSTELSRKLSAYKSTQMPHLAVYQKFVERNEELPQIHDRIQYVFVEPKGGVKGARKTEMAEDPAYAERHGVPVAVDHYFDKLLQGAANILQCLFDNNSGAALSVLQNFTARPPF

EBV BMRF1 processivity factor, full-length (from UniProt P03191 1-404)
DNA polymerase elongation activity on activated calf thymus DNA at 100 mM ammonium sulfate: > 100 fold
